This is an account of results in patent publication US6887467B1, “Double mutants of dihydrofolate reductase and methods of using same” (Sloan-Kettering Institute for Cancer Research, priority 1996, dated 2005).

Usually kcat stands for the maximal rate divided by the concentration of active sites. As usually defined, the Km is the concentration of substrate that gives half-maximal velocity. Usually Ki stands for the equilibrium dissociation constant of an inhibitor or competing ligand from its target.

Data set [1] concerns human DHFR (wild type and variants). Put plainly: Inhibition constants (Ki) of antifolates for DHFR variants from steady state reaction rates. In kind it is biochemical. The following applies: for Ki Kcat/km relative: relative to wt = 1, MTX. An excerpt: The first parameter, Ki, is the “inhibition constant” and reflects the level of inhibition by a given compound. Ki, is obtained from steady state reaction rates observed for mixtures of enzyme, cofactor. 7,8-dihydrofolate (the normal substrate) and variable levels of antifolate. The higher the value of Ki, the higher the concentration of antifolate required to inhibit the activity of the enzyme on the normal substrate.
(§1) The parameters Km and kcat can be combined to provide a measure of overall catalytic efficiency which is given by kcat/Km. High levels of catalytic efficiency are preferred.

The test system is the same in data set [2]. Put plainly: Kinetic parameters (Km, kcat) of purified DHFR variants with 7,8-dihydrofolate. In kind it is biochemical. As for the experimental part: Km or the “Michaelis constant” reflects the ability of an enzyme to convert a given substrate to product. In this case, the substrate is the normal substrate, 7,8-dihydrofolate. Km is determined using a double reciprocal plot of the initial velocity of the reaction as a function of the concentration of the substrate. Higher values of Km reflect a decreased affinity for the normal substrate.
kcat reflects the catalytic turnover of the enzyme. kcat values are obtained by active site titration experiments using MTX or from activity and total protein measurements of purified enzyme species.
as §1
Enzyme expressed by the transformed E. coli was purified using an MTX-affinity column, followed by DEAE-Sephacel column chromatography.

Like-named read-outs stand apart in the source and are kept apart here.

As to `N[C@@H](Cc1ccc(O)cc1)C(=O)O` [22 tyrosine, reference compound], in data set [1], the “Ki Kcat/km relative” value is 104.

B1: wild type: wild-type human dihydrofolate reductase, leucine at amino acid 22 and phenylalanine at amino acid 31 (protein, UniProt P00374 1-187, looked up)
Dihydrofolate reductase: MVGSLNCIVAVSQNMGIGKNGDLPWPPLRNEFRYFQRMTTTSSVEGKQNLVIMGKKTWFSIPEKNRPLKGRINLVLSRELKEPPQGAHFLSRSLDDALKLTEQPELANKVDMVWIVGGSSVYKEAMNHPGHLKLFVTRIMQDFESDTFFPEIDLEKYKLLPEYPGVLSDVQEEKGIKYKFEVYEKND
As for B1, in data set [2], the catalytic constant (kcat) turned out to be 12.7 s⁻¹. Besides, in data set [2] (substrate 7,8-dihydrofolate, read-out: Km (H2folate)), the Km worked out at 0.08 µM. For the same molecule, the inhibitory constant (Ki) in data set [1] (inhibitor aminopterin, read-out: Ki APT) came out at 1.8 pM; in data set [1] (inhibitor methotrexate, read-out: Ki (MTX)), 1.2 pM; in data set [1] (inhibitor piritrexin, read-out: Ki PTX), 132 pM; in data set [1] (inhibitor trimetrexate, read-out: Ki TMTX) it was 13 pM. Besides, the “Ki Kcat/km” value in data set [1] (product of Ki (MTX) and catalytic efficiency) was found to be 0.191 s⁻¹. Further, the “Ki Kcat/km relative” value in data set [1] is given as 1.
